Experimental data from patent publication US20080138349A1 (MacroGenics, published 2008).
Where a chain is given by its changes, count along the chain named. Names and notes keep the numbering of the source.

T1: FcγRIIB-Fc fusion protein, soluble dimeric: extracellular domain of FcγRIIB fused to the hinge-CH2-CH3 domain … (human, UniProt P31994 43-217, limits assumed)
T1 construct: extracellular domain; also called FcRIIB-Fc; FcR2B; not shown: human IgG2 hinge-CH2-CH3
T1 sequence (looked up): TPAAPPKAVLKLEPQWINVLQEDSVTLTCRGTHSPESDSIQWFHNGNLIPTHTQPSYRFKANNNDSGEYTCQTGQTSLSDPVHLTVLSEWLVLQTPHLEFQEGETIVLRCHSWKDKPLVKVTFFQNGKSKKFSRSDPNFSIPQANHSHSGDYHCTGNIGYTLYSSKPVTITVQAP

T2: 2aR131Fcagl (FcγRIIA 131R-Fc) (UniProt P12318 34-217, limits assumed)
T2 construct: not shown: Fc part; label Fcagl is not explained
T2 sequence (looked up): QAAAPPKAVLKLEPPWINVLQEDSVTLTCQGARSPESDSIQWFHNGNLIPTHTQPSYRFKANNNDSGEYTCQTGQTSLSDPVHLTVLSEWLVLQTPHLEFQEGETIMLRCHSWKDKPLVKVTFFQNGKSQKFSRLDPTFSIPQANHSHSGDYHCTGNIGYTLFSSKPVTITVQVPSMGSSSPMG

T3: 2aH131Fcagl (FcγRIIA 131H-Fc) (UniProt P12318 34-217, limits assumed)
T3 construct: also called FcγRIIA H131; not shown: Fc part; label Fcagl is not explained
T3 sequence (looked up): T2 sequence (looked up) with R134H

T4: 2bfcagl (FcγRIIB-Fc) (UniProt P31994 43-217, limits assumed)
T4 construct: label not explained; may be m4 or an aglycosylated form of it; not shown: Fc part; label fcagl is not explained
T4 sequence (looked up): T1 sequence (looked up)

B1: ch4-4-20 K288M, K334E (antibody)
chain 1: not shown
chain 2: DVVMTQTPLSLPVSLGDQASISCRSSQSLVHSNGNTYLRWYLQKPGQSPKVLIYKVSNRFSGVPDRFSGSGSGTDFTLKISRVEAEDLGVYFCSQSTHVPWTFGGGTKLEIKRTVAAPSVFIFPPSDEQLKSGTASVVCLLNNFYPREAKVQWKVDNALQSGNSQESVTEQDSKDSTYSLSSTLTLSKADYEKHKVYACEVTHQGLSSPVTKSFNRGEC
B2: ch4-4-20 Mut23 (antibody)
chain 1: not shown
chain 2: B1 chain 2
B3: ch4-4-20 S298N, K360R, N361D (antibody)
chain: EPKSCDKTHTCPPCPAPELLGGPSVFLFPPKPKDTLMISRTPEVTCVVVDVSHEDPEVKFNWYVDGVEVHNAKTKPREEQYNNTYRVVSVLTVLHQDWLNGKEYKCKVSNKALPAPIEKTISKAKGQPREPQVYTLPPSREEMTRDQVSLTCLVKGFYPSDIAVEWESNGQPENNYKTTPPVLDSDGSFFLYSKLTVDKSRWQQGNVFSCSVMHEALHNHYTQKSLSLSPGK
B4: ch-mAb 2B6 MgFc31/60 (P247L, D270E, N421K) (antibody)
chain: ASTKGPSVFPLAPSSKSTSGGTAALGCLVKDYFPEPVTVSWNSGALTSGVHTFPAVLQSSGLYSLSSVVTVPSSSLGTQTYICNVNHKPSNTKVDKKVEPKSCDKTHTCPPCPAPELLGGPSVFLFPPKLKDTLMISRTPEVTCVVVDVSHEEPEVKFNWYVDGVEVHNAKTKPREEQYNSTYRVVSVLTVLHQDWLNGKEYKCKVSNKALPAPIEKTISKAKGQPREPQVYTLPPSRDELTKNQVSLTCLVKGFYPSDIAVEWESNGQPENNYKTTPPVLDSDGSFFLYSKLTVDKSRWQQGKVFSCSVMHEALHNHYTQKSLSLSPGK
B5: ch-mAb 2B6 MgFc51/60 (Q419H, P396L with D270E) (antibody)
chain: B4 chain with L130P, P279L, Q302H, K304N
B6: ch-mAb 2B6 MgFc59/60 (K370E, P396L with D270E) (antibody)
chain: B4 chain with L130P, K253E, P279L, K304N

Legend:
FcγRIIIA [1] = target: T5, FcγRIIIA (UniProt P08637 17-208, limits assumed); assay: ELISA
T5 construct: also called CD16A
T5 sequence (P08637 17-208 limits assumed): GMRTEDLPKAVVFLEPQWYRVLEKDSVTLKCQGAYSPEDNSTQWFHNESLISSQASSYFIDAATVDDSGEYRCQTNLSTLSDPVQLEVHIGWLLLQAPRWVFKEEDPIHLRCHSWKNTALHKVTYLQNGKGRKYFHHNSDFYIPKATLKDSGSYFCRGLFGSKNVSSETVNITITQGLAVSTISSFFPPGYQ

[2] = target: T6, soluble monomeric FcγRIIIA, the extracellular region of FcγRIIIA joined to the linker-AVITAG sequence (UniProt P08637 17-208, limits assumed); assay: BIAcore, antibody captured on BSA-FITC
T6 construct: extracellular domain; also called FcRIIIA; FcR3A
T6 sequence (P08637 17-208 limits assumed): as above

[3] = target: T1, FcγRIIB-Fc fusion protein, soluble …; assay: BIAcore
[4] = target: T6, soluble monomeric FcγRIIIA, the …; assay: BIAcore
FcγRIIIA [5] = target: T5, FcγRIIIA; assay: ELISA; remark: listed apart in the source
[6] = target: T1, FcγRIIB-Fc fusion protein, soluble …; assay: ELISA of the ch4-4-20 Fc variant for FcγRIIB-Fc fusion protein, value listed beside the sensorgram
FcγRIIIA [7] = target: T5, FcγRIIIA; assay: ELISA; remark: listed apart in the source
[8] = target: T1, FcγRIIB-Fc fusion protein, soluble …; assay: BIAcore, ch4-4-20
[9] = target: T2, 2aR131Fcagl (FcγRIIA 131R-Fc); assay: BIAcore, 2B6 captured by soluble CD32B
[10] = target: T3, 2aH131Fcagl (FcγRIIA 131H-Fc); assay: BIAcore, 2B6 captured by soluble CD32B
FcγRIIIA 158F, soluble = target: T7, FcγRIIIA 158F, soluble (UniProt P08637 17-208, limits assumed); assay: BIAcore, 2B6 captured by soluble CD32B
T7 construct: also called 3aF158
T7 sequence (P08637 17-208 limits assumed): as above

2bfcagl (FcγRIIB-Fc) = target: T4, 2bfcagl (FcγRIIB-Fc); assay: BIAcore, 2B6 captured by soluble CD32B
FcγRIIIA 158V, soluble = target: T8, FcγRIIIA 158V, soluble (UniProt P08637 17-208, limits assumed); assay: BIAcore, 2B6 captured by soluble CD32B
T8 construct: also called 3aV158
T8 sequence (P08637 17-208 F176V limits assumed): as the sequence (P08637 17-208 limits assumed) above, with F160V counted along it

C1q = target: T9, C1q; assay: BIAcore, 2B6 captured by soluble CD32B
T9 construct: also called first component of the complement cascade
T9 sequence (P02745 23-245, chain 1 of 3): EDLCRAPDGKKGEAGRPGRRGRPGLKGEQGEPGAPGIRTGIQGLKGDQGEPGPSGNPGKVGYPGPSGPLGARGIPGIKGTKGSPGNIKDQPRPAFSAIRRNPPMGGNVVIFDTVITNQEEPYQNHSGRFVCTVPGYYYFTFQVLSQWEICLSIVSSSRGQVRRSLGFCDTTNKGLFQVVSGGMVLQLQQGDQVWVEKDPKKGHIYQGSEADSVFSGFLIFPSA
T9 sequence (P02746 28-253, chain 2 of 3, further chain): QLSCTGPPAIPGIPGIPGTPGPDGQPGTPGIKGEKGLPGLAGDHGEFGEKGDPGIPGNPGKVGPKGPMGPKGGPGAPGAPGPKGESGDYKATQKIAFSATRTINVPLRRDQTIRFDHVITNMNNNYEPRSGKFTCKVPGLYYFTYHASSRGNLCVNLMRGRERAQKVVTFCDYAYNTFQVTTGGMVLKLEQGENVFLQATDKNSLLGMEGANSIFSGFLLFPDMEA
T9 sequence (P02747 29-245, chain 3 of 3, further chain): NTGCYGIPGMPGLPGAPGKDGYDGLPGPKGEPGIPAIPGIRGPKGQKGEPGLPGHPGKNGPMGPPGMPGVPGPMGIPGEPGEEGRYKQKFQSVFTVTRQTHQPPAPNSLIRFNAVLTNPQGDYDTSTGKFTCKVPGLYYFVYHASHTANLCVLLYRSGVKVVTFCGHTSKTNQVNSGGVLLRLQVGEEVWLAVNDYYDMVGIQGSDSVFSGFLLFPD

Binder | Kd [2] [nM] | koff [2] [s⁻¹] | kon [2] [M⁻¹ s⁻¹] | ELISA, OD (FcγRIIIA [5]) [OD] | ELISA, OD [6] [OD] | koff [9] [s⁻¹] | koff [10] [s⁻¹] | koff (FcγRIIIA 158F, soluble) [s⁻¹] | koff (2bfcagl (FcγRIIB-Fc)) [s⁻¹] | koff (FcγRIIIA 158V, soluble) [s⁻¹] | koff (C1q) [s⁻¹] | also measured
B1 | 75.4 | 0.1 | 1.37e+06 | 1.1 | 0.13 | – | – | – | – | – | – | ELISA IIIA binding vs wt (FcγRIIIA [1]): 3 X; Kd [3]: 95.6 nM; koff [3]: 0.089 s⁻¹; Kd [4]: 75.4 nM; koff [4]: 0.1 s⁻¹; ELISA binding increase vs wt (FcγRIIIA [7]): 3 x
B2 | 70.2 | 0.105 | 1.43e+06 | 1.25 | 0.1 | – | – | – | – | – | – | –
B3 | – | – | – | – | – | – | – | – | – | – | – | Koff WT/Mut [8]: 0.67
B4 | – | – | – | – | – | 0.127 | 0.034 | 0.238 | 0.094 | 0.084 | – | –
B5 | – | – | – | – | – | 0.089 | 0.028 | 0.293 | 0.077 | 0.112 | 0.079 | –
B6 | – | – | – | – | – | 0.095 | 0.024 | 0.296 | 0.078 | 0.105 | 0.107 | –
